Data as given in the supplement of paper PMC11246515.
± gives the standard deviation of the averaged measurements.

Assay: total protein half-life in vivo (active degradation + dilution); higher = more stable protein
[1] = E. coli NCM3722 delta-clpP delta-lon delta-hslV, growth: N-lim chemostat, doubling time 6 h
[2] = E. coli NCM3722 delta-clpP, growth: N-lim chemostat, doubling time 6 h
[3] = E. coli NCM3722 delta-hslV, growth: N-lim chemostat, doubling time 6 h
[4] = E. coli NCM3722 delta-lon, growth: N-lim chemostat, doubling time 6 h
[5] = E. coli NCM3722 delta-smpB, growth: N-lim chemostat, doubling time 6 h
[6] = wild type E. coli NCM3722, growth: C-lim chemostat, doubling time 3 h
[7] = wild type E. coli NCM3722, growth: C-lim chemostat, doubling time 6 h
[8] = wild type E. coli NCM3722, growth: C-lim chemostat, doubling time 12 h
[9] = wild type E. coli NCM3722, growth: N-lim chemostat, doubling time 6 h
[10] = wild type E. coli NCM3722, growth: N-lim chemostat, doubling time 12 h
[11] = wild type E. coli NCM3722, growth: P-lim chemostat, doubling time 6 h
[12] = wild type E. coli NCM3722, growth: P-lim chemostat, doubling time 12 h

MIVAFCLYKYFPFGGLQRDFMRIASTVAARGHHVRVYTQSWEGDCPKAFELIQVPVKSHTNHGRNAEYYAWVQNHLKEHPADRVVGFNKMPGLDVYFAADVCYAEKVAQEKGFLYRLTSRYRHYAAFERATFEQGKSTKLMMLTDKQIADFQKHYQTEPERFQILPPGIYPDRKYSEQIPNSREIYRQKNGIKEQQNLLLQVGSDFGRKGVDRSIEALASLPESLRHNTLLFVVGQDKPRKFEALAEKLGVRSNVHFFSGRNDVSELMAAADLLLHPAYQEAAGIVLLEAITAGLPVLTTAVCGYAHYIADANCGTVIAEPFSQEQLNEVLRKALTQSPLRMAWAENARHYADTQDLYSLPEKAADIITGGLDG
total protein half-life in vivo [1]: 6.84 ± 0.81 h
total protein half-life in vivo [2]: 7.01 ± 1.2 h
total protein half-life in vivo [3]: 6.71 ± 0.8 h
total protein half-life in vivo [4]: 5.95 ± 0.33 h
total protein half-life in vivo [5]: 5.9 ± 0.47 h
total protein half-life in vivo [6]: 3.115 ± 0.015 h
total protein half-life in vivo [7]: 6.72 ± 0.35 h
total protein half-life in vivo [8]: 11.8 ± 2.6 h
total protein half-life in vivo [9]: 6.2 ± 0.56 h
total protein half-life in vivo [10]: 12.3 ± 1.8 h
total protein half-life in vivo [11]: 6.25 ± 0.29 h
total protein half-life in vivo [12]: 12.2 ± 0.98 h

MYRIVLGKVSTLSAAPLPPGLREQAPQGPRRERWLAGRALLSHTLSPLPEIIYGEQGKPAFAPEMPLWFNLSHSGDDIALLLSDEGEVGCDIEVIRPRANWRWLANAVFSLGEHAEMDAVHPDQQLEMFWRIWTRKEAIVKQRGGSAWQIVSVDSTYHSSLSVSHCQLENLSLAICTPTPFTLTADSVQWIDSVN
total protein half-life in vivo [1]: 4.86 ± 0.67 h
total protein half-life in vivo [3]: 3.56 ± 0.17 h
total protein half-life in vivo [4]: 3.99 ± 0.64 h
total protein half-life in vivo [5]: 2.53 ± 0.075 h
total protein half-life in vivo [6]: 2.55 ± 0.032 h
total protein half-life in vivo [7]: 4.94 ± 0.18 h
total protein half-life in vivo [8]: 8.278 ± 0.081 h
total protein half-life in vivo [9]: 3.78 ± 0.16 h
total protein half-life in vivo [10]: 6.11 ± 0.44 h
total protein half-life in vivo [11]: 5.86 ± 0.65 h
total protein half-life in vivo [12]: 11.1 ± 2.4 h

MSEKLQKVLARAGHGSRREIESIIEAGRVSVDGKIAKLGDRVEVTPGLKIRIDGHLISVRESAEQICRVLAYYKPEGELCTRNDPEGRPTVFDRLPKLRGARWIAVGRLDVNTCGLLLFTTDGELANRLMHPSREVEREYAVRVFGQVDDAKLRDLSRGVQLEDGPAAFKTIKFSGGEGINQWYNVTLTEGRNREVRRLWEAVGVQVSRLIRVRYGDIPLPKGLPRGGWTELDLAQTNYLRELVELPPETSSKVAVEKDRRRMKANQIRRAVKRHSQVSGGRRSGGRNNNG
total protein half-life in vivo [1]: 6.28 ± 0.59 h
total protein half-life in vivo [2]: 5.65 ± 1.1 h
total protein half-life in vivo [3]: 6.02 ± 0.61 h
total protein half-life in vivo [4]: 5.92 ± 0.38 h
total protein half-life in vivo [5]: 4.94 ± 0.081 h
total protein half-life in vivo [6]: 2.92 ± 0.27 h
total protein half-life in vivo [7]: 5.79 ± 0.66 h
total protein half-life in vivo [8]: 10.4 ± 2.1 h
total protein half-life in vivo [9]: 6.18 ± 1.5 h
total protein half-life in vivo [10]: 9.66 ± 0.21 h
total protein half-life in vivo [11]: 5.43 ± 0.43 h
total protein half-life in vivo [12]: 10.6 ± 0.17 h

MTDNTRLRIAMQKSGRLSDDSRELLARCGIKINLHTQRLIAMAENMPIDILRVRDDDIPGLVMDGVVDLGIIGENVLEEELLNRRAQGEDPRYFTLRRLDFGGCRLSLATPVDEAWDGPLSLNGKRIATSYPHLLKRYLDQKGISFKSCLLNGSVEVAPRAGLADAICDLVSTGATLEANGLREVEVIYRSKACLIQRDGEMEESKQQLIDKLLTRIQGVIQARESKYIMMHAPTERLDEVIALLPGAERPTILPLAGDQQRVAMHMVSSETLFWETMEKLKALGASSILVLPIEKMME
total protein half-life in vivo [1]: 3.9 ± 1 h
total protein half-life in vivo [2]: 2.97 ± 0.12 h
total protein half-life in vivo [3]: 3.093 ± 0.014 h
total protein half-life in vivo [4]: 5.11 ± 1.9 h
total protein half-life in vivo [5]: 3.38 ± 0.042 h
total protein half-life in vivo [6]: 2.99 ± 0.52 h
total protein half-life in vivo [7]: 4.94 ± 0.53 h
total protein half-life in vivo [8]: 7.58 ± 0.31 h
total protein half-life in vivo [9]: 3.29 ± 0.1 h
total protein half-life in vivo [10]: 4.73 ± 0.14 h
total protein half-life in vivo [11]: 5.32 ± 0.63 h
total protein half-life in vivo [12]: 11.2 ± 0.66 h

MVTINTESALTPRSLRDTRRMNMFVSVAAAVAGLLFGLDIGVIAGALPFITDHFVLTSRLQEWVVSSMMLGAAIGALFNGWLSFRLGRKYSLMAGAILFVLGSIGSAFATSVEMLIAARVVLGIAVGIASYTAPLYLSEMASENVRGKMISMYQLMVTLGIVLAFLSDTAFSYSGNWRAMLGVLALPAVLLIILVVFLPNSPRWLAEKGRHIEAEEVLRMLRDTSEKAREELNEIRESLKLKQGGWALFKINRNVRRAVFLGMLLQAMQQFTGMNIIMYYAPRIFKMAGFTTTEQQMIATLVVGLTFMFATFIAVFTVDKAGRKPALKIGFSVMALGTLVLGYCLMQFDNGTASSGLSWLSVGMTMMCIAGYAMSAAPVVWILCSEIQPLKCRDFGITCSTTTNWVSNMIIGATFLTLLDSIGAAGTFWLYTALNIAFVGITFWLIPETKNVTLEHIERKLMAGEKLRNIGV [P0AE24]
total protein half-life in vivo [10]: 9.72 h

MSKSLQKPTILNVETVARSRLFTVESVDLEFSNGVRRVYERMRPTNREAVMIVPIVDDHLILIREYAVGTESYELGFSKGLIDPGESVYEAANRELKEEVGFGANDLTFLKKLSMAPSYFSSKMNIVVAQDLYPESLEGDEPEPLPQVRWPLAHMMDLLEDPDFNEARNVSALFLVREWLKGQGRV
total protein half-life in vivo [1]: 4.86 ± 0.33 h
total protein half-life in vivo [2]: 4.8 ± 1.8 h
total protein half-life in vivo [3]: 3.56 ± 0.2 h
total protein half-life in vivo [4]: 4.58 ± 0.89 h
total protein half-life in vivo [5]: 3.4 ± 0.13 h
total protein half-life in vivo [6]: 3.39 ± 0.13 h
total protein half-life in vivo [7]: 5.24 ± 0.67 h
total protein half-life in vivo [8]: 9.26 ± 1.9 h
total protein half-life in vivo [9]: 3.9 ± 0.67 h
total protein half-life in vivo [10]: 5.391 ± 0.048 h
total protein half-life in vivo [11]: 5.95 ± 0.12 h
total protein half-life in vivo [12]: 11.5 ± 1 h

MKLFYKPGACSLASHITLRESGKDFTLVSVDLMKKRLENGDDYFAVNPKGQVPALLLDDGTLLTEGVAIMQYLADSVPDRQLLAPVNSISRYKTIEWLNYIATELHKGFTPLFRPDTPEEYKPTVRAQLEKKLQYVNEALKDEHWICGQRFTIADAYLFTVLRWAYAVKLNLEGLEHIAAFMQRMAERPEVQDALSAEGLK [P0A9D2]
total protein half-life in vivo [1]: 4.9 ± 0.3 h
total protein half-life in vivo [2]: 5.74 ± 1.9 h
total protein half-life in vivo [3]: 4.81 ± 0.22 h
total protein half-life in vivo [4]: 6.34 ± 1.4 h
total protein half-life in vivo [5]: 4.64 ± 0.58 h
total protein half-life in vivo [6]: 2.84 ± 0.23 h
total protein half-life in vivo [7]: 5.69 ± 0.32 h
total protein half-life in vivo [8]: 11.6 ± 2.5 h
total protein half-life in vivo [9]: 4.81 ± 0.2 h
total protein half-life in vivo [10]: 9.9 ± 0.87 h
total protein half-life in vivo [11]: 5.44 ± 0.29 h
total protein half-life in vivo [12]: 10.6 ± 0.74 h
